From patent publication US20240350583A1, “COMPOSITION FOR PREVENTING OR TREATING FIBROTIC DISEASES, COMPRISING HAPLN1” (Chung Ang University Industry Academic Cooperation …, priority 2021, published 2024) come the findings set out here.

The subject of this experiment is human kidney renal tubule cell (Human Kidney 2, HK-2). The experiment is described as follows: Anti-fibrotic efficacy in HK-2 cells (drug after TGFβ1), αSMA western blot. In kind it is cell-based. As to the method:
(1) Human kidney renal tubule cells (HK-2) were seeded (2.8×10^5 cells/well) in a […] according to the experimental scheme of FIG. 7A and incubated in RPMI 1640 Medium (11875-093, Gibco) including 10% FBS for 24 hours in an incubator at 37° C. 5% CO2.
(2) Afterwards, the plates were washed several times with PBS, and each well of the plate was treated with TGFβ1 (5 ng/ml) and incubated for 24 hours.
(3) Subsequently, the plates were then treated with the composition of the present disclosure (rhHAPLN1 protein content of 0, 5, 10, 20, and 50 ng/ml) and pirfenidone 0.2 mg/mL (200 μg/mL), respectively, and incubated for 48 hours.
(4) Each sample was then washed several times with ice-cold PBS, treated with radioimmunoprecipitation assay (RIPA) lysis and extraction buffer (Thermo Scientific) including protease and phosphatase inhibitors, scraped with a scraper, and transferred to an E-tube.
(5) By centrifugation (12000 rpm, 20 minutes, 4° C.), only the supernatant was obtained, and BCA assay was performed to obtain quantitative protein values.
(6) After quantification using the obtained quantitative value, cooking was performed at 100° C. for 3 minutes and then stored in a −20° C. refrigerator. […]
(11) After washing three times with TBST for 10 minutes each, the samples were detected by Chemidoc.

Entries after “also recorded” stand apart in the source; their conditions may differ.

B1: rhHAPLN1: recombinant human HAPLN1 protein of SEQ ID NO: 1 produced in CHO-K1 cells, stabilized in acetic acid buffer, sucrose, PS80, pH 5.0 (protein, listed as Homo sapiens)
chain: MKSLLLLVLISICWADHLSDNYTLDHDRAIHIQAENGPHLLVEAEQAKVFSHRGGNVTLPCKFYRDPTAFGSGIHKIRIKWTKLTSDYLKEVDVFVSMGYHKKTYGGYQGRVFLKGGSDSDASLVITDLTLEDYGRYKCEVIEGLEDDTVVVALDLQGVVFPYFPRLGRYNLNFHEAQQACLDQDAVIASFDQLYDAWRGGLDWCNAGWLSDGSVQYPITKPREPCGGQNTVPGVRNYGFWDKDKSRYDVFCFTSNFNGRFYYLIHPTKLTYDEAVQACLNDGAQIAKVGQIFAAWKILGYDRCDAGWLADGSVRYPISRPRRRCSPTEAAVRFVGFPDKKHKLYGVYCFRAYN
For the molecule B1, for the setting “rhHAPLN1 50 ng/ml”, the “anti-fibrotic efficacy (αSMA) compared to pirfenidone 0.2 mg/ml” value is on record as “almost equivalent to that of pirfenidone”. Besides, the “anti-fibrotic efficacy (αSMA) compared to composition that does not include rhHAPLN1 protein (FIG. 7B, FIG. 7C)” value (rhHAPLN1 10 to 50 ng/ml, 48 hours after 24 hours TGFβ1) is on record as “superior anti-fibrotic action; also recorded: excellent anti-fibrotic efficacy”.
